Test results published in the nanobody polyreactivity screen of Harvey et al. (2022).

Experiment: yeast display, Sf9 membrane polyspecificity reagent, FACS + sequencing; frameworks hold sequencing errors
Summary of the method: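 Genes from sorted yeast were amplified by colony PCR, read by MiSeq 2 × 250 sequencing and filtered on CDR length. These cells carried a synthetic nanobody library in Saccharomyces cerevisiae BJ5465 and were sorted by FACS into low and high (top ~1%) gates on anti-HA and streptavidin fluorescence. Polyreactivity is labelled according to the gate of origin.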

Sequence	polyreactivity (PSR sort gate)
QVQLVESGGGLVQAGGSLRLSCAASGFTFVGNTMGWYRQAPGKERELVAAIRGRDGRTYYADSVKGRFTISRDNAKNTVYLQMNSLKPEDTAVFYCNAVGFVWYFDVYSYFTEIKYDYWGQGTQVTVSS	low polyreactivity
QVQLVESGGGLVQAGGSLRLSCAASGFTFVGYAMGWYRQAPGKERELVAAITGRGGTTYYADSVKGRFTISRDNAKNTVYLQMNSLKPEDTAVYYSNADSYITYVQYLYARSWMDYWGQGTQVTVSS	low polyreactivity
QVQLVESGGGLVQAGGSLRLSCAASGFTFVINDMGLYRQAPGKERELVADITSGGDTYYADSVKGRFTISRDNAKNTVYLQMNSLKPEDTAVYYCAADIYPDWIYLLYGYWGQGTQVTVSS	low polyreactivity
QVQLVESGGGLVQAGGSLRLSCAASGFTFVKNAMGWYRQAPGKERELVAAITGSAGRTYYADSVKGRFTISRDNAKNTVYLQMNSLKPEDTAVYYCAAPRFAAPRRIGYDWGQGTQVTVSS	high polyreactivity
QVQLVESGGGLVQAGGSLRLSCAASGFTFVKYAMGWYRQAPGKERELVAAISRSGGRTYYADSVKGRFTISLDNAKNTVYLQMNSLKPEDTAVYYCAADVATTHELDYWGQGTQVTVSS	high polyreactivity
QVQLVESGGGLVQAGGSLRLSCAASGFTFVLYAMGWYRQAPGKERELVATITSSGRTNYADSVKGRFTISRDNAKNTVYLQMNSLKPEDTAVYYCAARGGRRYDYWGQGTQVTVSS	high polyreactivity
QVQLVESGGGLVQAGGSLRLSCAASGFTFVRNVMGWYRQAPGKERELVAAINTGGTTDYADSVKGRFTISRDNAKNTVYLQMNSLKPEDTAVYNCNADYDSQYHYLLRYDYWGQGSQVTVSS	low polyreactivity
QVQLVESGGGLVQAGGSLRLSCAASGFTFVRYAMGWYRQAPGKEREFVASISARGGNTFYADSVKGRFTISRDNAKNTVYLQMNSLKPEDTAVYYCNALTYFKRSEYYWGQGTQVTVSS	high polyreactivity
QVQLVESGGGLVQAGGSLRLSCAASGFTFVRYVMGWYRQAPGKERELVAAISRSGGSTHYADSVKGRFTISRDNAKNTVYLQMNSLKPEDTAVYYCNAYGYRHRGNGYWGQGTQVTVSS	high polyreactivity
QVQLVESGGGLVQAGGSLRLSCAASGFTFVSYAMGWSRQAPGKERELVATITSDGSTNYADSVKGRFTISRDNAKNTVYLQMNSLKPEDTAVYYCAADIHYYPGYLAYDYWGQGTQVTVSS	low polyreactivity
QVQLVESGGGLVQAGGSLRLSCAASGFTFVSYAMGWYRQEPGKEREFVASISARGGNTFYADSVKGRFTISRDNAKNTVYLQMNSLKPEDTAVYYCAKRGPYGTGYGYWGQGTQLTVSS	high polyreactivity
QVQLVESGGGLVQAGGSLRLSCAASGFTFVVNAMGWYRQAPGKERELVATIRSNGGSTYYADSVKGRFTISRDNAKNTVYLQMNSLKPEDTAVYYCAATATDTKYGYWGQGTQVTVSS	low polyreactivity
QVQLVESGGGLVQAGGSLRLSCAASGFTFVYNAMGWYRQAPGKERELVAAISSRGGSTFYADSVKGRFTISRDNAKNTVYLQMNSLKPEDTAVYYCNAVPGWTYDYWGQGTQVTVSS	high polyreactivity
QVQLVESGGGLVQAGGSLRLSCAASGFTFVYYTMGWYRQAPGKERELVAAITSRGGNTYYADSVKGRFTISRDNAKNTVYLQMNSLKPEDTAVYYCAARRITTYYYWGQGTQVTVSS	high polyreactivity
QVQLVESGGGLVQAGGSLRLSCAASGFTFVYYVMGWYRPAPGKERELVAAISWSGGRTYYADSVKGRFTISRDNAKNTVYLQMNSLKPDDTAVYYCAAVRPYYYPLPTVPNLPYDYWGQGTQVTVSS	high polyreactivity
QVQLVESGGGLVQAGGSLRLSCAASGFTFVYYVMGWYRQAPGKERELVAAITYSGGSTYYADSVKGRFTISRDNAKNTVYLHMNSLKPEDTAVYYCAKEVQTYWYHYYYWGQGTQVTVSS	high polyreactivity
QVQLVESGGGLVQAGGSLRLSCAASGFTFWAYAMGWYRPAPGKERELVARISGSGGRTYYADSVKGRFTISRDNAKNTVYLQMNSLKPEDTAVYYCAARRYYYPVGYDYWGEGTQVTVSS	high polyreactivity
QVQLVESGGGLVQAGGSLRLSCAASGFTFWDNAMGWYRQAPGKERELVAAISRRGGTTYYADSVKGRFTISRDNAKNTVYLQMNRLKPEATAVYYCNARRRSVPYRYDFWGQGTQVTVSS	high polyreactivity
QVQLVESGGGLVQAGGSLRLSCAASGFTFWDYAMGWYRQAPGKERELVAAISSRGTRTYYADSVKGRFTISRDNAKNTVYFQMNSLKPEDTAVYYCATAIPDPDYIHNYWGQGTQVTVSS	high polyreactivity
QVQLVESGGGLVQAGGSLRLSCAASGFTFWDYAMGWYRQAPGKERELVAAISSRGTRTYYADSVKGRFTISRDNAKNTVYLQMNSLKPEDTAVYYCATAIPDPDYIHNYWGQGTQVTVSS	high polyreactivity
QVQLVESGGGLVQAGGSLRLSCAASGFTFWDYAMGWYRQAPGKERELVATISVGGGSTYYADSVKGRFTISRDNSKNSVYLQMNSLKPEDTAVYYCAADRSYYLAGYDYWGQGTQVPVSS	low polyreactivity
QVQLVESGGGLVQAGGSLRLSCAASGFTFWDYTMGWYRQAPGKERELVAAISSSGGGTYYADSVKGRFTISRDNAKNTVYLQMNSLKPVDTAVYYCAASVWYYPMDYWGQGTQVTVSS	low polyreactivity
QVQLVESGGGLVQAGGSLRLSCAASGFTFWEYAMGWYRQAPGKERELVAAIRDRGVNTYYADSVKGRFTISRDNAKNTVYLQMNSLKPVDTAVYYCAKSTRRGGVALGEYDYWGQGSQVTVSS	low polyreactivity
QVQLVESGGGLVQAGGSLRLSCAASGFTFWGNAMGWYRPAPGKERELVAAITDTGSTNYADSVKGRFTISRDNAKNTVYLQMNSLKPEDTAVYYCAKDKAYYDWGQTNGYWGQGTQVTVSS	low polyreactivity
QVQLVESGGGLVQAGGSLRLSCAASGFTFWGYTMGWYRQAPGKERELVAAITSTGSTYYAYSVKGRFTISRDNAKNTVYLQMNSLKPEDTSVYYCATARSYLTYSYHYDYWGQGTQVTVSS	low polyreactivity
QVQLVESGGGLVQAGGSLRLSCAASGFTFWKYAMGWYRQAPGKERELVATITSSGDNTYYADSVKGRFTISRDNAKNNVYLQMNSLKPEDTAVYYCAADNGYHYNFDYWGQGTQVTVSS	low polyreactivity
QVQLVESGGGLVQAGGSLRLSCAASGFTFWLYAMGWYRQAPGKERELVAAIDWDCGTYYADSVKGRFTISRDNAKNTVYLQMNSLKPEDTAVYYCAARYRYYYTRYDYWGQGTQVTVSS	high polyreactivity
QVQLVESGGGLVQAGGSLRLSCAASGFTFWRNAMGWYRQAPGKERELVAAISASGGSTYYADSVKGRFTISRDYAKNTVYLQKNSLKPEDTAVYYCAADTQGFYRYDYWGQGTQVTVSS	low polyreactivity
QVQLVESGGGLVQAGGSLRLSCAASGFTFWRNTMGWSRQAPGKERELVAAIDRSGSSTYYADSEKGRFTISRDNATNTVYLQMNSLKPEDTAVYYCAAAHTYFTPYGDYWGQGTQVTVSS	low polyreactivity
QVQLVESGGGLVQAGGSLRLSCAASGFTFWRNVMGWYRQAPGKERELVAAITRSGGSTYYADSVKGRFTISRDNAKNTVYLQMNSLKPEDTAVYYCNAVRHGGYDYLGQGTQVTVSS	high polyreactivity
